Like-named read-outs stand apart in the source and are kept apart here.

The test system of data set [1] is T1, Pyrococcus furiosus PCNA.
T1 sequence: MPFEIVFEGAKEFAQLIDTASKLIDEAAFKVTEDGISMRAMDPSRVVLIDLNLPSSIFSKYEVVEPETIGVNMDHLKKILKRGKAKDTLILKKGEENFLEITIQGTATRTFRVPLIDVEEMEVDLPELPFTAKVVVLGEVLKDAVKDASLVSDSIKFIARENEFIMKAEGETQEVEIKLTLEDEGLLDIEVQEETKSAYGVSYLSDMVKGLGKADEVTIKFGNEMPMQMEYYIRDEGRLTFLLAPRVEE

The target of data set [2] is T2, Pyrococcus furiosus PCNA.
T2 chain: T1 sequence

Take “cloned Pfu DNA polymerase (Pyrococcus furiosus pol I)”: in data set [1], the “dNTP incorporation into primed M13 DNA” value is “PCNA was shown to stimulate dNTP incorporation by both Pfu (pol I) and P. furiosus pol II DNA polymerases”.

B1: P. furiosus pol II DNA polymerase (recombinant CBP-DP1/DP2) (protein)
chain 1: MDEFVKSLLKANYLITPSAYYLLREYYEKGEFSIVELVKFARSRESYIITDALATEFLKVKGLEPILPVETKGGFVSTGESQKEQSYEESFGTKEEISQEIKEGESFISTGSEPLEEELNSIGIEEIGANEELVSNGNDNGGEAIVFDKYGYPMVYAPEEIEVEEKEYSKYEDLTIPMNPDFNYVEIKEDYDVVFDVRNVKLKPPKVKNGNGKEGEIIVEAYASLFRSRLKKLRKILRENPELDNVVDIGKLKYVKEDETVTIIGLVNSKREVNKGLIFEIEDLTGKVKVFLPKDSEDYREAFKVLPDAVVAFKGVYSKRGILYANKFYLPDVPLYRRQKPPLEEKVYAILISDIHVGSKEFCENAFIKFLEWLNGNVETKEEEEIVSRVKYLIIAGDVVDGVGVYPGQYADLTIPDIFDQYEALANLLSHVPKHITMFIAPGNHDAARQAIPQPEFYKEYAKPIYKLKNAVIISNPAVIRLHGRDFLIAHGRGIEDVVGSVPGLTHHKPGLPMVELLKMRHVAPMFGGKVPIAPDPEDLLVIEEVPDVVHMGHVHVYDAVVYRGVQLVNSATWQAQTEFQKMVNIVPTPAKVPVVDIDTAKVVKVLDFSGWC
chain 2: MELPKEIEEYFEMLQREIDKAYEIAKKARSQGKDPSTDVEIPQATDMAGRVESLVGPPGVAQRIRELLKEYDKEIVALKIVDEIIEGKFGDFGSKEKYAEQAVRTALAILTEGIVSAPLEGIADVKIKRNTWADNSEYLALYYAGPIRSSGGTAQALSVLVGDYVRRKLGLDRFKPSGKHIERMVEEVDLYHRAVSRLQYHPSPDEVRLAMRNIPIEITGEATDDVEVSHRDVEGVETNQLRGGAILVLAEGVLQKAKKLVKYIDKMGIDGWEWLKEFVEAKEKGEEIEESESKAEESKVETRVEVEKGFYYKLYEKFRAEIAPSEKYAKEIIGGRPLFAGPSENGGFRLRYGRSRVSGFATWSINPATMVLVDEFLAIGTQMKTERPGKGAVVTPATTAEGPIVKLKDGSVVRVDDYNLALKIRDEVEEILYLGDAIIAFGDFVENNQTLLPANYVEEWWIQEFVKAVNEAYEVELRPFEENPRESVEEAAEYLEVDPEFLAKMLYDPLRVKPPVELAIHFSEILEIPLHPYYTLYWNTVNPKDVERLWGVLKDKATIEWGTFRGIKFAKKIEISLDDLGSLKRTLELLGLPHTVREGIVVVDYPWSAALLTPLGNLEWEFKAKPFYTVIDIINENNQIKLRDRGISWIGARMGRPEKAKERKMKPPVQVLFPIGLAGGSSRDIKKAAEEGKIAEVEIAFFKCPKCGHVGPETLCPECGIRKELIWTCPKCGAEYTNSQAEGYSYSCPKCNVKLKPFTKRKIKPSELLNRAMENVKVYGVDKLKGVMGMTSGWKIAEPLEKGLLRAKNEVYVFKDGTIRFDATDAPITHFRPREIGVSVEKLRELGYTHDFEGKPLVSEDQIVELKPQDVILSKEAGKYLLRVARFVDDLLEKFYGLPRFYNAEKMEDLIGHLVIGLAPHTSAGIVGRIIGFVDALVGYAHPYFHAAKRRNCDGDEDSVMLLLDALLNFSRYYLPEKRGGKMDAPLVITTRLDPREVDSEVHNMDVVRYYPLEFYEATYELKSPKELVGVIERVEDRLGKPEMYYGIKFTHDTDDIALGPKMSLYKQLGDMEEKVKRQLTLAERIRAVDQHYVAETILNSHLIPDLRGNLRSFTRQEFRCVKCNTKYRRPPLDGKCPVCGGKIVLTVSKGAIEKYLGTAKMLVANYNVKPYTRQRICLTEKDIDSLFEYLFPEAQLTLIVDPNDICMKMIKERTGETVQGGLLENFNSSGNNGKKIEKKEKKAKEKPKKKKVISLDDFFSKR
Consider B1, for which, in data set [2], the “dNTP incorporation into primed M13 DNA” value was “PCNA was shown to stimulate dNTP incorporation by both Pfu (pol I) and P. furiosus pol II DNA polymerases”.

For the origin of these results see US20090221029.
